In experiment [1] the target is T1, 2-CysPRXA C54S (pseudo-reduced variant) (Arabidopsis, UniProt Q96291 66-266, C54S).
T1 sequence: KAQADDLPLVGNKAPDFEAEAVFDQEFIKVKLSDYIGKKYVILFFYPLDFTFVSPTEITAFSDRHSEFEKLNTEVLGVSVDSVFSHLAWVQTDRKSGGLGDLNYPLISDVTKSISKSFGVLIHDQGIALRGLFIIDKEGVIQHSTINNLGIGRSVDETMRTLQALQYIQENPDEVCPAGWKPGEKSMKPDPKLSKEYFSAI
The experiment can be described thus: ITC; oxidized (unit printed as M). Background: Isothermal titration calorimetry measures the heat released or taken up as one component is titrated into another.

For experiment [2], the target named is T2, 2-CysPRXA C54S (pseudo-reduced variant) (Arabidopsis, UniProt Q96291 66-266, C54S).
T2 construct: 2-Cys peroxiredoxin A, Arabidopsis; source: E. coli BL21, recombinant (pET28a)
T2 sequence (looked up): T1 sequence
The experiment is described as follows: ITC; CP12-1 injected into 2-CysPRXA C54S under oxidizing conditions (proteins treated with 1 mM H2O2, dialysed); 35 mM HEPES pH 8.0. To be noted: both partners purified.

Experiment [3] deals with T3, 2-cysteine peroxiredoxin A, wild type (2-CysPRXA WT) (Arabidopsis, UniProt Q96291 66-266).
T3 chain: T1 sequence with S54C
The experiment can be described thus: ITC; reduced (unit printed as M).

The target in experiment [4] is T4, 2-cysteine peroxiredoxin A, wild type (2-CysPRXA WT) (Arabidopsis, UniProt Q96291 66-266).
T4 construct: 2-Cys peroxiredoxin A, Arabidopsis; redox state set with 10 mM DTT or 1 mM H2O2 before use; source: E. coli BL21, recombinant (pET28a)
T4 sequence (looked up): T1 sequence with S54C
The experiment can be described thus: ITC; LOX2 injected into 2-CysPRX WT under reducing conditions (proteins treated with 10 mM DTT, dialysed); 35 mM HEPES pH 8.0. To be noted: both partners purified.

Experiment [5] deals with T4, 2-cysteine peroxiredoxin A, wild type …. The experiment is described as follows: cell-based or functional assay.

Positions count from the first letter of the chain named.

The source of these data is publication PMC7346168, “Redox Conformation-Specific Protein–Protein Interactions of the 2-Cysteine Peroxiredoxin in Arabidopsis” (Antioxidants, 2020).

B1: CHLOROPLAST PROTEIN 12-1, recombinant hisx6-tagged (natural protein, Arabidopsis thaliana, UniProt O22914 48-124, looked up)
chain: TSEGEISEKVEKSIQEAKETCADDPVSGECVAAWDEVEELSAAASHARDKKKAGGSDPLEEYCNDNPETDECRTYDN
notes: Calvin cycle protein CP12-1, Arabidopsis thaliana; also called CP12-1; CHLOROPLAST REGULATOR; source: E. coli BL21, recombinant
B1 had a Ka in experiment [1] of 3.91e+06 M⁻¹. Moreover, the “stoichiometry N” value in experiment [2] was approximately 1.

B2: LIPOXYGENASE 2, recombinant hisx6-tagged (enzyme, Arabidopsis thaliana, UniProt P38418 71-896, looked up)
chain: QNIKVKGYITAQEEFLEGITWSRGLDDIADIRGRSLLVELISAKTDQRITVEDYAQRVWAEAPDEKYECEFEMPEDFGPVGAIKIQNQYHRQLFLKGVELKLPGGSITFTCESWVAPKSVDPTKRIFFSDKSYLPSQTPEPLKKYRKEELETLQGKNREEVGEFTKFERIYDYDVYNDVGDPDNDPELARPVIGGLTHPYPRRCKTGRKPCETDPSSEQRYGGEFYVPRDEEFSTAKGTSFTGKAVLAALPSIFPQIESVLLSPQEPFPHFKAIQNLFEEGIQLPKDAGLLPLLPRIIKALGEAQDDILQFDAPVLINRDRFSWLRDDEFARQTLAGLNPYSIQLVEEWPLISKLDPAVYGDPTSLITWEIVEREVKGNMTVDEALKNKRLFVLDYHDLLLPYVNKVRELNNTTLYASRTLFFLSDDSTLRPVAIELTCPPNINKPQWKQVFTPGYDATSCWLWNLAKTHAISHDAGYHQLISHWLRTHACTEPYIIAANRQLSAMHPIYRLLHPHFRYTMEINARARQSLVNGGGIIETCFWPGKYALELSSAVYGKLWRFDQEGLPADLIKRGLAEEDKTAEHGVRLTIPDYPFANDGLILWDAIKEWVTDYVKHYYPDEELITSDEELQGWWSEVRNIGHGDKKDEPWWPVLKTQDDLIGVVTTIAWVTSGHHAAVNFGQYGYGGYFPNRPTTTRIRMPTEDPTDEALKEFYESPEKVLLKTYPSQKQATLVMVTLDLLSTHSPDEEYIGEQQEASWANEPVINAAFERFKGKLQYLEGVIDERNVNITLKNRAGAGVVKYELLKPTSEHGVTGMGVPYSISI
notes: Lipoxygenase 2, Arabidopsis thaliana; the limits follow from them; also called LOX2; 13-LIPOXYGENASE; source: E. coli BL21, recombinant (pET15b)
As to B2, in experiment [3], the Ka amounted to 4.18e+07 M⁻¹. Further, the “stoichiometry N” value in experiment [4] is approximately 1. In addition, in experiment [5], the “LOX2-catalysed peroxidation of α-linolenic acid (absorbance at 234 nm), 0.5 µM LOX2 with 0.5 µM oxidized 2-CysPRXA; rate against LOX2 alone” value is 2.4 fold and the “LOX2-catalysed peroxidation of α-linolenic acid (absorbance at 234 nm), 0.5 µM LOX2 with 0.5 µM reduced 2-CysPRXA; rate against LOX2 alone” value worked out at 1.4 fold.

One may read the stoichiometry N as a count of units in the complex or per binding partner.
